These results are taken from article PMC12493166, “The ClpA chaperone and the two adaptor proteins modulate the fate of the model substrate tagged with a SsrA-degron of Leptospira” (Biochemical Journal, 2025).

Experiment [1] deals with T1, LinClpA (Leptospira interrogans, UniProt Q8F4D7).
T1 construct: gene clpA; full length, 740 residues, C-terminal 6xHis tag (pET-23a), E. coli BL21 (DE3), Ni-NTA; monomer ~82 kDa, ~492 kDa oligomer with ATP
T1 sequence (Q8F4D7 19-758): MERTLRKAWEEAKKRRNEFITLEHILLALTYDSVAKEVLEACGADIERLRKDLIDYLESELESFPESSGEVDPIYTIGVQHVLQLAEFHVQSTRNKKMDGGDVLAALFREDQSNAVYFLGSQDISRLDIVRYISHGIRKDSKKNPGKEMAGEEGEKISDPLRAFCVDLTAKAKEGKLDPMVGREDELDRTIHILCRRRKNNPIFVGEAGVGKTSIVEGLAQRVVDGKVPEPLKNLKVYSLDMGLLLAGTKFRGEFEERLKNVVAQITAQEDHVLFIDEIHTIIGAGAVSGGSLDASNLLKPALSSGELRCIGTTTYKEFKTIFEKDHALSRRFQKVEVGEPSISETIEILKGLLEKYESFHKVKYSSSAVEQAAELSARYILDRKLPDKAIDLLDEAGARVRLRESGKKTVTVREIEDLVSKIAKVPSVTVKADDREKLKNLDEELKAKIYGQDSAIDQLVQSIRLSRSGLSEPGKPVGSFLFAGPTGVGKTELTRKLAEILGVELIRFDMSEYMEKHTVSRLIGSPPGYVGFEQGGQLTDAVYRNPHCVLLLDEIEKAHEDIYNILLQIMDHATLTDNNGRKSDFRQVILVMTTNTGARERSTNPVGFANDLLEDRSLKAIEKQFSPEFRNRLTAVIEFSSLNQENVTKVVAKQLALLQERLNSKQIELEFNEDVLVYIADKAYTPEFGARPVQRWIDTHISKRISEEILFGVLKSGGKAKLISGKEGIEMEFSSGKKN
Put plainly: ANS fluorescence change on oligomerization. The class given is binding. To be noted: 2 mM nucleotide, 3 μM protein, 10 μM ANS, 8 mM MgCl2, pH 7.8; indirect, oligomerization read-out. As for the experimental part:
ANS fluorescence change on oligomerization on LinClpA | pre-incubation of LinClpA with ADP, PolyP or ATP led to reductions in ANS fluorescence

Experiment [2] has as its target T1, LinClpA. Put plainly: malachite green phosphate release. The experiment is classed as biochemical. The settings on record: 8 mM Mg2+, pH 7.8, 37°C, 1 μM enzyme.
The target of experiment [3] is T1, LinClpA. Put plainly: ANS fluorescence change on oligomerization (also size-exclusion chromatography). The experiment is classed as binding. To be noted: 2 mM nucleotide, 3 μM protein, 10 μM ANS, 8 mM MgCl2, pH 7.8; indirect, oligomerization read-out.
Experiment [4] addresses T1, LinClpA. Put plainly: ANS fluorescence change on oligomerization. The experiment is classed as binding. The settings on record: 2 mM nucleotide, 3 μM protein, 10 μM ANS, 8 mM MgCl2, pH 7.8; indirect, oligomerization read-out. This is another data set of the same source.
In experiment [5] the target is ClpS (Escherichia coli) (UniProt P0A8Q6). To be noted: cited from earlier work.
Experiment [6] concerns the target LinClpS1 (Clp adaptor protein ClpS1 of Leptospira interrogans) (L. interrogans serovar Copenhageni strain Fiocruz L1-130).
Experiment [7] addresses LinClpS2 (Clp adaptor protein ClpS2 of Leptospira interrogans) (L. interrogans serovar Copenhageni strain Fiocruz L1-130) (UniProt Q72RD1).
For experiment [8], the target named is LinClpS1 (Clp adaptor protein ClpS1 of Leptospira interrogans) (L. interrogans serovar Copenhageni strain Fiocruz L1-130). The source holds these as a separate data set.
In experiment [9] the target is LinClpS2 (Clp adaptor protein ClpS2 of Leptospira interrogans) (L. interrogans serovar Copenhageni strain Fiocruz L1-130) (UniProt Q72RD1). This is another data set of the same source.
Experiment [10] concerns the target LinClpA (ClpA ATPase chaperone of Leptospira interrogans) (L. interrogans serovar Copenhageni strain Fiocruz L1-130). Put plainly: ANS dye-binding fluorescence; LinClpA (3 μM) pre-incubated with ATP, GTP, CTP, UTP, ADP or PolyP (2 mM) 20 minutes at 4°C, then ANS (10 μM); excitation 350 nm, emission 400-750 nm; less ANS fluorescence read as oligomerization.
Experiment [11] addresses LinClpP1 (ClpP1 isoform of the Clp protease of Leptospira interrogans) (L. interrogans) (UniProt Q72SG6). Put plainly: ELISA; LinClpP1, LinClpP2, LinClpS1 or LinClpS2 (1 μM/well) coated overnight at 4°C; blocked with 3% BSA in PBS; ATP-bound LinClpA or LinClpA^∆N (0–3 μM) overlaid 2 hours at 37°C; detected with mouse anti-LinClpA; Kd by Hill plot analysis. In general terms: An ELISA detects its analyte on a solid surface through an enzyme-linked reagent.

Experiment [12] deals with LinClpP2 (ClpP2 isoform of the Clp protease of Leptospira interrogans) (L. interrogans) (UniProt Q72R01). The experiment is described as above.
The target in experiment [13] is LinClpS1 (Clp adaptor protein ClpS1 of Leptospira interrogans) (L. interrogans serovar Copenhageni strain Fiocruz L1-130). The experiment is described as above.
In experiment [14] the target is LinClpS2 (Clp adaptor protein ClpS2 of Leptospira interrogans) (L. interrogans serovar Copenhageni strain Fiocruz L1-130) (UniProt Q72RD1). Described as above.

LinClpS2 (Clp adaptor protein ClpS2 of Leptospira interrogans) (L. interrogans serovar Copenhageni strain Fiocruz L1-130), sequence (Q72RD1 whole entry): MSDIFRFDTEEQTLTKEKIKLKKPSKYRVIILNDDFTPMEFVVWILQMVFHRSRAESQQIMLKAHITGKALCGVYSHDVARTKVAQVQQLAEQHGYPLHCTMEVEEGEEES
ClpA, sequence (P0ABH9 whole entry): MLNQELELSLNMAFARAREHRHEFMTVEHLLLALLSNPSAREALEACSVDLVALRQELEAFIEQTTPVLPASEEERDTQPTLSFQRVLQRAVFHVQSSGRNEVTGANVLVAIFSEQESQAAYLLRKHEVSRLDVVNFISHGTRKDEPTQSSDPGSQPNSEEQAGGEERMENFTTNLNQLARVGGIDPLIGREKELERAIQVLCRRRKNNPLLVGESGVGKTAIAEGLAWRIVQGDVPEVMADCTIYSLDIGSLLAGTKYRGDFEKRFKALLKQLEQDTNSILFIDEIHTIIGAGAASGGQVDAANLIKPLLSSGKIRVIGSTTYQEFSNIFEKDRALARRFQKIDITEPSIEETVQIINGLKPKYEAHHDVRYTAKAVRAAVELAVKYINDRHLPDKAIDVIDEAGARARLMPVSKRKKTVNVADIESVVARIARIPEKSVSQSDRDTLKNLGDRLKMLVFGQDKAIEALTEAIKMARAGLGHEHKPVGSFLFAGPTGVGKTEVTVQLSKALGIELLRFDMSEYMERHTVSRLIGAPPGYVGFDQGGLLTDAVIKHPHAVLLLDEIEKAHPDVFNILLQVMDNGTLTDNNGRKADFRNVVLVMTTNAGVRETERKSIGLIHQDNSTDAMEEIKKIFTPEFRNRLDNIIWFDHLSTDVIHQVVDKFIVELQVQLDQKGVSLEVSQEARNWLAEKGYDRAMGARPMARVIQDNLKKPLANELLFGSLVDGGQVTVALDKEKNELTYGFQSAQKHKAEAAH

As for `Nc1ncnc2c1ncn2[C@@H]1O[C@H](COP(=O)(O)OP(=O)(O)O)[C@@H](O)[C@H]1O` [ADP], in experiment [1], the “ANS fluorescence, % of pure LinClpA” value is 65%.

With `Nc1ncnc2c1ncn2[C@@H]1O[C@H](COP(=O)(O)OP(=O)(O)OP(=O)(O)O)[C@@H](O)[C@H]1O` [ATP], the “malachite green phosphate release” value in experiment [2] is on record as “LinClpA primarily utilizes ATP as its substrate”. The “ANS fluorescence, % of pure LinClpA” value in [3] came out at 50%.

For the compound `Nc1ccn([C@@H]2O[C@H](COP(=O)(O)OP(=O)(O)OP(=O)(O)O)[C@@H](O)[C@H]2O)c(=O)n1` [CTP], the “ANS fluorescence change on oligomerization” value (“ANS fluorescence change” below) in [4] was “can interact with various nucleotides, including GTP, CTP and UTP, in addition to ATP”.

Consider `Nc1nc2c(ncn2[C@@H]2O[C@H](COP(=O)(O)OP(=O)(O)OP(=O)(O)O)[C@@H](O)[C@H]2O)c(=O)[nH]1` [GTP], for which the “ANS fluorescence change” value in experiment [4] was “can interact with various nucleotides, including GTP, CTP and UTP, in addition to ATP”.

Regarding `O=c1ccn([C@@H]2O[C@H](COP(=O)(O)OP(=O)(O)OP(=O)(O)O)[C@@H](O)[C@H]2O)c(=O)[nH]1` [UTP], the “ANS fluorescence change” value in experiment [4] is “can interact with various nucleotides, including GTP, CTP and UTP, in addition to ATP”.

Turning to ClpA (from UniProt P0ABH9), the dissociation constant (Kd) in experiment [5] was 330 nM.

Consider “LinClpA (ClpA ATPase chaperone of Leptospira interrogans) (enzyme)”, for which the ATPase activity of LinClpA (1 μM, malachite green) with LinClpS1 1–10 μM; dose-dependent inhibition; percent reduction at 10 μM in experiment [6] was 57 % reduction. The same compound had an ATPase activity of LinClpA (1 μM, malachite green) with LinClpS2 1–10 μM; dose-dependent inhibition; percent reduction at 10 μM in [7] of 90 % reduction. Moreover, in experiment [8], the degradation of eGFP-SsrA (2 μM) by the LinClpAP1P2 machinery (3 µM) after 60 minutes with LinClpS1 5, 10 and 15 µM, percent of the machinery without adaptor; value at 5 µM; total suppression at 15 µM (% of LinClpAP1P2 activity) amounted to 53. For the same compound, the degradation of eGFP-SsrA (2 μM) by the LinClpAP1P2 machinery (3 µM) after 60 minutes with LinClpS2 5, 10 and 15 µM, percent of the machinery without adaptor; value at 5 µM; total suppression at 10 µM (% of LinClpAP1P2 activity) in [9] came out at 39. The compound also yielded an ANS fluorescence intensity with ADP, percent of pure LinClpA in experiment [10] of 65%. In experiment [10], this compound had an ANS fluorescence intensity with ATP, percent of pure LinClpA of 50%. The same compound came in with an ANS fluorescence intensity with PolyP, percent of pure LinClpA in [10] of 55%. In addition, the equilibrium dissociation constant (Kd) was 280 nM in experiment [11], 280 nM in [12], 440 nM in experiment [13] and 320 nM in experiment [14].

For the compound “LinClpA^∆N (N-domain-deleted variant of LinClpA) (domain or fragment)”, the Kd in experiment [11] and in [12] was 280 nM in each case.

One may read the Kd as the concentration at which binding is half-saturated.
